{
  "source": "paper doi:10.1101/2022.02.08.479534",
  "about": "“FoxP3 can fold into two distinct dimerization states with divergent functional implications for T cell homeostasis” (bioRxiv, 2022)",
  "binders": {"B1": {"name": "NusA-tagged FoxP3^forkhead (domain or fragment, mouse, UniProt Q99JB6 336-423, looked up)", "chain": "MRPPFTYATLIRWAILEAPERQRTLNEIYHWFTRMFAYFRNHPATWKNAIRHNLSLHKCFVRVESEKGAVWTVDEFEFRKKRSQRPNK", "notes": "FoxP3, mouse, forkhead domain, residues 336-423; NusA (60 kDa) kept for SEC-MALS; also called isolated FoxP3 forkhead; source: E. coli BL21(DE3), purified (Ni-NTA, Superdex 200), HRV3C cleavage omitted; not shown: His6, N-terminal, kept; NusA, N-terminal, kept"}, "B2": {"name": "NusA-tagged FoxP3^RBR-forkhead R337Q (domain or fragment, mouse, UniProt Q99JB6 284-423, looked up)", "chain": "TSTQGSVLPAWSAPREAPDGGLFAVRRHLWGSHGNSSFPEFFHNMDYFKYHNMQPPFTYATLIRWAILEAPERQRTLNEIYHWFTRMFAYFRNHPATWKNAIRHNLSLHKCFVRVESEKGAVWTVDEFEFRKKRSQRPNK", "notes": "FoxP3, mouse, RBR-forkhead, residues 284-423 with the IPEX mutation R337Q; R337Q is a mutation of human IPEX patients, here put into the mouse protein; also called R337Q FoxP3^RBR-forkhead; FoxP3^RBR-forkhead with R337Q; source: E. coli BL21(DE3), purified (Ni-NTA, Superdex 200), HRV3C cleavage omitted; not shown: His6, N-terminal, kept; NusA, N-terminal, kept"}, "B3": {"name": "NusA-tagged FoxP3^RBR-forkhead Y373V (domain or fragment, mouse, UniProt Q99JB6 284-423, looked up)", "chain": "B2 chain with Q54R, Y90V", "notes": "FoxP3, mouse, RBR-forkhead, residues 284-423 with the IPEX mutation Y373V; Y373V is a mutation of human IPEX patients, here put into the mouse protein; also called Y373V FoxP3^RBR-forkhead; source: E. coli BL21(DE3), purified (Ni-NTA, Superdex 200), HRV3C cleavage omitted; not shown: His6, N-terminal, kept; NusA, N-terminal, kept"}, "B4": {"name": "GST-tagged Runx1 (residue 371-451) (domain or fragment, mouse, UniProt Q03347 371-451, looked up)", "chain": "GSPSYHLYYGASAGSYQFSMVGGERSPPRILPPCTNASTGAALLNPSLPSQSDVVETEGSHSNSPTNMPPARLEEAVWRPY", "notes": "cloned into pGEX-6P-1; also called Runx1^ΔN; source: E. coli BL21(DE3), purified (Ni-NTA, Superdex 200)"}, "B5": {"name": "NusA-tagged FoxP3^ΔN (domain or fragment, mouse, UniProt Q99JB6 188-423, looked up)", "chain": "GSYPLLANGVCKWPGCEKVFEEPEEFLKHCQADHLLDEKGKAQCLLQREVVQSLEQQLELEKEKLGAMQAHLAGKMALAKAPSVASMDKSSCCIVATSTQGSVLPAWSAPREAPDGGLFAVRRHLWGSHGNSSFPEFFHNMDYFKYHNMRPPFTYATLIRWAILEAPERQRTLNEIYHWFTRMFAYFRNHPATWKNAIRHNLSLHKCFVRVESEKGAVWTVDEFEFRKKRSQRPNK", "notes": "FoxP3, mouse, ZF, CC, RBR and forkhead, residues 188-423; source: E. coli BL21(DE3), purified (Ni-NTA, Superdex 200), HRV3C cleavage omitted; not shown: His6, N-terminal, kept; NusA, N-terminal, kept"}, "B6": {"name": "FoxP3^forkhead C394S T368C (swap dimer-specific X-linking construct) (domain or fragment, mouse, UniProt Q99JB6 336-423, looked up)", "chain": "B1 chain with T33C, C59S", "notes": "FoxP3, mouse, forkhead, residues 336-423 with C394S and T368C; source: E. coli BL21(DE3), purified (Ni-NTA, HRV3C cleavage, Superdex 75); not shown: His6, N-terminal, cleaved; NusA, N-terminal, cleaved"}},
  "key": {"[1]": {"molecular_target": "the molecule itself", "assay": "SEC-MALS; NusA-fused proteins on Superdex 200 Increase 10/300; 20 mM Tris pH 7.5, 500 mM NaCl, 2 mM DTT; miniDAWN MALS and Optilab dRI detectors"}, "[2]": {"molecular_target": "T1, MBP-tagged FoxP3^RBR-forkhead (mouse, UniProt Q99JB6 284-423)", "T1 construct": "FoxP3, mouse, RBR-forkhead, residues 284-423; cloned into a modified pMAL-c2 vector; also called MBP-FoxP3^RBR-forkhead; His6-MBP fused FoxP3^RBR-forkhead; source: E. coli BL21(DE3), purified (Ni-NTA, Superdex 200)", "T1 sequence (looked up)": "B2 chain with Q54R", "assay": "pull-down; MBP pull-down: MBP-FoxP3^RBR-forkhead 1 μM with GST-Runx1(371-451) 0.5 μM, with or without 2 μM DNA (IR-FKHM^4g or single FKHM), 30 min at room temperature in RIPA buffer", "conditions": "both partners purified"}, "[3]": {"molecular_target": "the molecule itself", "assay": "cross-linking; 2 μM FoxP3^forkhead with 100 μM BMOE in 1x PBS, 1 h at 25°C, quenched with 10 mM DTT; SDS-PAGE, Krypton stain"}},
  "note": "Positions count from the first letter of the chain named. Names and notes keep the numbering of the source.",
  "data": [
    {"binder": "B1", "values": [
      {"measurement": "stoichiometry N", "setting": "[1]", "result": 2}
    ]},
    {"binder": "B2", "values": [
      {"measurement": "stoichiometry N", "setting": "[1]", "result": 2}
    ]},
    {"binder": "B3", "values": [
      {"measurement": "stoichiometry N", "setting": "[1]", "result": 4}
    ]},
    {"binder": "B4", "values": [
      {"measurement": "binding result", "setting": "[2]", "result": "binds"}
    ]},
    {"binder": "B5", "values": [
      {"measurement": "stoichiometry N", "setting": "[1]", "result": 2}
    ]},
    {"binder": "B6", "values": [
      {"measurement": "binding result", "setting": "[3]", "result": "binds"}
    ]}
  ]
}
